The data set concerns the target T1, DHX36 (RHAU) (UniProt Q9H2U1 1-1008).
T1 sequence: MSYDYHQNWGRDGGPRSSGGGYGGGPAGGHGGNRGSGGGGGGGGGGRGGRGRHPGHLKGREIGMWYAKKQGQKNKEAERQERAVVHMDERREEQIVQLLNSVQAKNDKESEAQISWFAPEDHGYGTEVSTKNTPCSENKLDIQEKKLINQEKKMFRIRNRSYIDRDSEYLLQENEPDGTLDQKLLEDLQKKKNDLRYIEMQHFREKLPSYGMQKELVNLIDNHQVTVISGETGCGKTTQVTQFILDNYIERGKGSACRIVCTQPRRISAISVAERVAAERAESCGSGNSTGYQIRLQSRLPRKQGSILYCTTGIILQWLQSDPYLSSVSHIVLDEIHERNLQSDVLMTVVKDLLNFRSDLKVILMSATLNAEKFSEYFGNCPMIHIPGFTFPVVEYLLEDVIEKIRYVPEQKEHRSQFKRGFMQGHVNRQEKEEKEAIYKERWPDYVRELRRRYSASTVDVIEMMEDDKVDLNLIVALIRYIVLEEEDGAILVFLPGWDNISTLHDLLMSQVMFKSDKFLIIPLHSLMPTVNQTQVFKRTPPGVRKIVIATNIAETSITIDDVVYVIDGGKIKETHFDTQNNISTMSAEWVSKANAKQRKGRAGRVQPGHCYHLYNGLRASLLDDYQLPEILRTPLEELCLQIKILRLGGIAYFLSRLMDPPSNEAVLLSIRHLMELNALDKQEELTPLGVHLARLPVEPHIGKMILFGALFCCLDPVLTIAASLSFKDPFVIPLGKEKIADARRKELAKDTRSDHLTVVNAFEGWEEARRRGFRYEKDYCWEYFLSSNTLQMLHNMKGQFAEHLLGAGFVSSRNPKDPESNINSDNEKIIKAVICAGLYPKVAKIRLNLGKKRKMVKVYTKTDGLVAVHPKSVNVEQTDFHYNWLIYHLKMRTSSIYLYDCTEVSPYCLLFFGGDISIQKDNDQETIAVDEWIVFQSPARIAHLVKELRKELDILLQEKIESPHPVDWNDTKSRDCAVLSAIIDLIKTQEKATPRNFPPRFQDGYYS
Description: MST; EMSA and MST: 25 mM Tris-HCl pH 7.5, 150 mM KCl, 1 mM MgCl2, 37 C 30 min; 30 nM (EMSA) or 40 nM (MST) FAM-oligo; EMSA gel 10% native PAGE, 0.5x TBE, 4 C. The following applies: protein: recombinant; for Kd: G4. For orientation: A gel shift assay detects complexes by their altered migration in electrophoresis.

From PMC11780864, “RNA G-quadruplex structure-based PROTACs for targeted DHX36 protein degradation and gene activity modulation in mammalian cells” come the findings set out here.

In general, Kd refers to the free concentration of one partner at which half of the binding sites on the other are occupied at equilibrium, for simple one-to-one binding.

Regarding TTGGGTGGGTGGGTGGGT (structured_DNA, 5'-hexynyl clicked to AHPC-PEG2) [FAM_dG4_A (T95-2T)], for the setting “label: 3'-FAM”, the Kd turned out to be 303 ± 55 nM.

Turning to GGGCCGGCGGUGGGAGCGGAGUGGGUCGGGCGGGG (structured_RNA) [FAM_Gnai2 rG4 WT], the equilibrium dissociation constant (Kd) (label: 5'-FAM) stood at 37.9 ± 3.6 nM.

With GGGUUGCGGAGGGUGGGCCU (structured_RNA, 5'-hexynyl clicked to AHPC-PEG2 (VHL ligand)) [FAM_rG4_A_PEG2 (FAM_rG4_A)], the dissociation constant Kd (label: 3'-FAM) worked out at 79.7 ± 17.3 nM.

On to GAGCCGGCGGUGAGAGCGGAGUGAGUCGAACGAAG (ssRNA) [FAM_Gnai2 rG4 Mut], for which the binding result (label: 5'-FAM, non-G4) is given as “no binding”.

Consider CGGGGCGGGUGGGGAGGGGU (structured_RNA, printed with T although called rG4) [FAM_APP rG4 WT], for which the Kd (label: 5'-FAM) turned out to be 19.7 ± 2.3 nM.
